Source: publication PMC5207143

Experiments:
[1] = target: human FcγRIIB receptor (on transfected Expi293F cells) (human) (UniProt P31994); test: flow cytometry on cells; Expi293F cells transiently transfected with a human Fcγ receptor, 48 h after transfection; 1 to 10000 ng/ml test antibody, 1.5 h at 4 °C; R-phycoerythrin anti-human IgG secondary antibody; EC50 by nonlinear regression of mean fluorescence
[2] = target: human FcγRIIA receptor, Arg131 allotype (on transfected Expi293F cells) (human); test: as above
Sequence of human FcγRIIA receptor, Arg131 allotype (on transfected Expi293F cells) (human) (P12318 other isoform, or with tags, fused parts or gaps): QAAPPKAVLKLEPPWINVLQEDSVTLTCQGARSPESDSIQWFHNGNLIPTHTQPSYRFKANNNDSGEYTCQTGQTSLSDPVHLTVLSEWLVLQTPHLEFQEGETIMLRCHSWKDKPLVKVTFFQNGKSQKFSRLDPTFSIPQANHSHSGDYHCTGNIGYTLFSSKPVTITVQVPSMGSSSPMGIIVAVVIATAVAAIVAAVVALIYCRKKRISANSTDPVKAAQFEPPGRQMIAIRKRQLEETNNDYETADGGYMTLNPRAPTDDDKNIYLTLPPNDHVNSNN

[3] = target: FcγRIIB on Raji cells (human (endogenous in Raji)) (UniProt P31994)
[4] = target: OX40SF2IgG1E345R/E430G/S440Y (human); test: SEC-MALS; purified antibody in solution; monomeric peak and a ∼900 kDa peak

Row | Binder | EC50 [1] | EC50 [2] | fold more potent EC50 than OX40SF2IgG1 [2] | agonism in the HEK-Blue NF-κB reporter assay, HEK-Blue:OX40 cells co-cultured with Raji cells, 10 to 1000 ng/ml antibody; decreased when Raji cells were pre-blocked with 5 μg/ml 2B6 [3] | stoichiometry N [4]
1 | OX40SF2IgG1S267E/L328F (antibody, V domains shown) VH: QVQLVQSGAEVKKPGSSVKVSCKASGYTFKDYTMHWVRQAPGQGLEWIGGIYPNNGGSTYNQNFKDRVTLTADKSTSTAYMELSSLRSEDTAVYYCARMGYHGPHLDFDVWGQGTTVTVSS VL: DIQMTQSPSSLSASVGDRVTITCKASQDVGAAVAWYQQKPGKAPKLLIYWASTRHTGVPSRFSGSGSGTDFTLTISSLQPEDFATYYCQQYINYPLTFGGGTKVEIK | 3.1 nM | 1.5 nM | 20 fold | > 2 fold | –
2 | OX40SF2IgG1E345R/E430G/S440Y (antibody, V domains shown) VH: QVQLVQSGAEVKKPGSSVKVSCKASGYTFKDYTMHWVRQAPGQGLEWIGGIYPNNGGSTYNQNFKDRVTLTADKSTSTAYMELSSLRSEDTAVYYCARMGYHGPHLDFDVWGQGTTVTVSS VL: DIQMTQSPSSLSASVGDRVTITCKASQDVGAAVAWYQQKPGKAPKLLIYWASTRHTGVPSRFSGSGSGTDFTLTISSLQPEDFATYYCQQYINYPLTFGGGTKVEIK | – | – | – | – | 6
